Experimental findings from IntAct's records for PubMed 23706742 are described below.

The target of this assay is pk3cb_mouse Pik3cb (UniProt Q8BTI9).

As for “Ras-related C3 botulinum toxin substrate 1 (Mus musculus) (from UniProt P63001) I33D”, the “effect of a mutation on the interaction” value is “decreasing interaction strength”.
